Measurements as given in patent publication US20210221907A1 (published 2021).

T1: TROP2 on MDA-468 cells over-expressing TROP2 (TROP2+ MDA-468) (UniProt P09758 27-323)
T1 sequence (looked up): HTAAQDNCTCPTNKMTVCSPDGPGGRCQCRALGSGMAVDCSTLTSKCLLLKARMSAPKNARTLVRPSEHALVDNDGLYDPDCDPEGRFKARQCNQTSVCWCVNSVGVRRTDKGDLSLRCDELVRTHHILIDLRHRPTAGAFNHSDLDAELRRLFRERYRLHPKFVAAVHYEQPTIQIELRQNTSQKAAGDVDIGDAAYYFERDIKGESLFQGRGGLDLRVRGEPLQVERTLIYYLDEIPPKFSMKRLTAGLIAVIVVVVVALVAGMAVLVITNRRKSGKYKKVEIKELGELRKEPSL

T2: recombinant TROP2 protein (UniProt P09758 27-274, limits assumed)
T2 construct: also called rProtein
T2 sequence (looked up): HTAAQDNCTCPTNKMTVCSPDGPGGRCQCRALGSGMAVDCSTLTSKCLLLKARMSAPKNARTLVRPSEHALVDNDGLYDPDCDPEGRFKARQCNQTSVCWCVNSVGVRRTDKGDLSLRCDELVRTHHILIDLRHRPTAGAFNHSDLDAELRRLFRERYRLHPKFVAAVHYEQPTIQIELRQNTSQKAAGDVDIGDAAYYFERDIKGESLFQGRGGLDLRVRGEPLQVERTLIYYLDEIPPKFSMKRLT


Experiments:
[1] = target: T1, TROP2 on MDA-468 cells over-expressing …; test: cell-based or functional assay
[2] = target: T2, recombinant TROP2 protein; test: ELISA titration, antibody with varying concentrations of recombinant TROP2 protein
Protocol: Antibodies were tested in an antigen binding assay using ELISA titration experiments. Antibodies were incubated with varying concentrations of recombinant TROP2 protein [rProtein].

Binder | rProtein ELISA Affinity [2] | Indirect Cytotoxicity Cell viability % [1] | Indirect Cytotoxicity IC50 [1]
TROP2-Ab8 (antibody, V domains shown, Monoclonal antibody from a hybridoma clone) VH: QVQLQQSGPEVVKPGASVKMSCKASGYRFTDYVINWVKQRTGQGLEWIGQIYPGSDSFHYNKNFKGKATLTADKSSNTAYMQLNSLTSEDSAVYFCARFFEGLAYWGQGTLVTVSA VL: DIKMTQSPSSMYAFLGERVTITCKASQGINNYLSWFQLKPGKSPKSLIYRANRLVDGVPSRFSGSGSGQDYSLTISSLDYEDMGIYYCLQYDEFPLTFGGGTKLELK | < 0.1 nM | 26% | 0.0271 nM
TROP2-Ab22 (antibody, V domains shown, Monoclonal antibody from a hybridoma clone) VH: QVQLQQSGPELVKPGASVKMSCKASGYTFTDYVINWVKQRPGQGLEWVGQIYPGSDGTYYNEPFKGEATLTADKSSNTAYMQLSSLTSEDSAVYFCARFFEGFAYWGQGTLVTVSA VL: DIKMTQSPSSMFASLGERVTITCKASQDINWYLSWFQQKPGKSPKTLIYRANRLVDGVPSRFSGSGSGQDYSLTISSLDYEDMGVYYCLQYEEFPLTFGAGTKLELK | 0.19 nM | 34% | 0.0587 nM
TROP2-Ab7 (antibody, V domains shown, Monoclonal antibody from a hybridoma clone (V regions amplified with mouse Ig primers)) VH: QVQLQQSGPEVVKPGASVKMSCKASGYRFTDYVINWVKQRSGQGLEWIGQIYPGSDTFHYNKNFKGKATLTADKSSNTAYMQLNSLTSEDSAVYFCARFFEGFAYWGQGTLVTVSA VL: DIKMTQSPSSMYAFLGERVTITCKASQGINNYLSWFHLKPGKSPKSLIYRANRLVDGVPSRFSGSGSGQDYSLTISSLDYEDVGIYYCLQYDEFPLTFGGGTKLELK | 0.1 nM | 34% | 0.044 nM
TROP2-Ab51 (antibody, V domains shown, Monoclonal antibody from a hybridoma clone) VH: QVQLQQSGPEVVKPGASVKMSCRASGYRFTDYVINWVKQRTGQGLEWIGQIYPGSDSFHYNKNFKGKATLTADKSSNTAYMQLNSLTSEDSAVYFCARFFEGFAYWGQGTLVTVSA VL: DIKMTQSPSSMYAFLGERVTITCKASQGINNYLSWFQLKPGKSPKSLIYRANRLVDGVPSRFSGSGSGQDYSLTISSLDYEDMGIYYCLQYDEFPLTFGGGTKLELK | < 0.1 nM | 39% | 0.0567 nM

More lines, main results first:

rProtein ELISA Affinity [2] | Binder | Indirect Cytotoxicity Cell viability % [1] | Indirect Cytotoxicity IC50 [1]
< 0.1 nM | TROP2-Ab46 (antibody, V domains shown, Monoclonal antibody from a hybridoma clone) VH: QVQLQQPGAELVRPGASVRLSCKSSGYTFTSYWINWVKQRPGQGLEWIGNIFPSHSYTNYNQKFRDKATLTVDKSSSTAYLQLSSPTSDDSAVYYCTRGSGFDYWGQGTALTVSS VL: DILLTQSPAILSVSPGERVSFSCRASQNIGTSIHWYQQRTNGSPRLLISYASESISGIPSRFSGSGSGTDFTLIINSVESEDIADYYCQHSYSWPFTFGSGTKLEVK | 27% | 0.0672 nM
< 0.1 nM | TROP2-Ab50 (antibody, V domains shown, Monoclonal antibody from a hybridoma clone; also called TROP2 -Ab0) VH: QVQLQQSGAELVRPGTSVKISCKASGYTFTNYWLDWIKQRPGQGLEWIGNIFPGGDYTNYNEEFRGKATLTADTSSRTAFMQLSSLTSEDSAVYFCARSSYDYWGQGTLVTVSA VL: DILLTQSPAILSVSPGERVSFSCRASQNIGTSIHWYQQRTNGSPRLLIKYSSESISGIPSRFSGSGSGTDFSLTINSVESEDIGDYYCQHSYTWPFTFGSGTKLEIK | 45% | 0.0992 nM
